We go through 2 molecules from article PMC5270673, “Altered stoichiometry and nuclear delocalization of NonO and PSF promote cellular senescence” (Aging (Albany NY), 2016).

The target in data set [1] is T1, Splicing Factor Proline/Glutamine Rich, PSF/SFPQ (human (endogenous in BJ fibroblasts)), P23246.
T1 chain: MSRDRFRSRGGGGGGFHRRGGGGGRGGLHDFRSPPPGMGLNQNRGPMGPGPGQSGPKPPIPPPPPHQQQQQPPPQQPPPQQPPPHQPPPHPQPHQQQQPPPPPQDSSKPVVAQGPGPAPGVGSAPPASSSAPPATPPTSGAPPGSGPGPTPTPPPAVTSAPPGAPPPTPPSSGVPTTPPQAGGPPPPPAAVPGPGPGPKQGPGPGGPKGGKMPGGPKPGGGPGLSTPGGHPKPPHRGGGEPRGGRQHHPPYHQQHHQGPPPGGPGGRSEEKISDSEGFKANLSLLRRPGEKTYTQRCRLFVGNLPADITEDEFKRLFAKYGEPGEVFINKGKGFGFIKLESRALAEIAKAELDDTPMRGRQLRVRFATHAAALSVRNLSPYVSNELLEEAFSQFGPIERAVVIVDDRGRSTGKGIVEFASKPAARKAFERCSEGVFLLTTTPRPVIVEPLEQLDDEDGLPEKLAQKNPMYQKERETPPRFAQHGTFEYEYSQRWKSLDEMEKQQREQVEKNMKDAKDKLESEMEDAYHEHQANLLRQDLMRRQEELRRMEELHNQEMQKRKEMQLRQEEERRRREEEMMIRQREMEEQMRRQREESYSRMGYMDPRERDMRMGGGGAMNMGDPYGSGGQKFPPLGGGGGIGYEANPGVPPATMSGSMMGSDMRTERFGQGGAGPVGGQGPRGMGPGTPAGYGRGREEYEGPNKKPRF
Briefly: SEC; Superose 6 FPLC of nuclear and cytoplasmic extracts of BJ fibroblasts, untransfected or overexpressing NonO, day 8; 400 mM KCl, 20 mM HEPES pH 7.9, 1.0 mM MgCl2, 0.5 mM EGTA, 10% glycerol; fractions blotted with anti-NonO and anti-PSF; masses estimated from marker proteins. As to conditions: remark: other sources report otherwise.

Data set [2] deals with the molecule itself. The data set is described as above.

B1: Splicing Factor Proline/Glutamine Rich, PSF/SFPQ, P23246 1-707 (natural protein)
chain: MSRDRFRSRGGGGGGFHRRGGGGGRGGLHDFRSPPPGMGLNQNRGPMGPGPGQSGPKPPIPPPPPHQQQQQPPPQQPPPQQPPPHQPPPHPQPHQQQQPPPPPQDSSKPVVAQGPGPAPGVGSAPPASSSAPPATPPTSGAPPGSGPGPTPTPPPAVTSAPPGAPPPTPPSSGVPTTPPQAGGPPPPPAAVPGPGPGPKQGPGPGGPKGGKMPGGPKPGGGPGLSTPGGHPKPPHRGGGEPRGGRQHHPPYHQQHHQGPPPGGPGGRSEEKISDSEGFKANLSLLRRPGEKTYTQRCRLFVGNLPADITEDEFKRLFAKYGEPGEVFINKGKGFGFIKLESRALAEIAKAELDDTPMRGRQLRVRFATHAAALSVRNLSPYVSNELLEEAFSQFGPIERAVVIVDDRGRSTGKGIVEFASKPAARKAFERCSEGVFLLTTTPRPVIVEPLEQLDDEDGLPEKLAQKNPMYQKERETPPRFAQHGTFEYEYSQRWKSLDEMEKQQREQVEKNMKDAKDKLESEMEDAYHEHQANLLRQDLMRRQEELRRMEELHNQEMQKRKEMQLRQEEERRRREEEMMIRQREMEEQMRRQREESYSRMGYMDPRERDMRMGGGGAMNMGDPYGSGGQKFPPLGGGGGIGYEANPGVPPATMSGSMMGSDMRTERFGQGGAGPVGGQGPRGMGPGTPAGYGRGREEYEGPNKKPRF
In the case of B1, the stoichiometry N in data set [1] was 2.

B2: NonO overexpressed in BJ fibroblasts (natural protein, UniProt Q99K48 1-473, looked up)
chain: MQSNKAFNLEKQNHTPRKHHQHHHQQHHQQQQQQQQQQPPPPIPANGQQASSQNEGLTIDLKNFRKPGEKTFTQRSRLFVGNLPPDITEEEMRKLFEKYGKAGEVFIHKDKGFGFIRLETRTLAEIAKVELDNMPLRGKQLRVRFACHSASLTVRNLPQYVSNELLEEAFSVFGQVERAVVIVDDRGRPSGKGIVEFSGKPAARKALDRCSEGSFLLTTFPRPVTVEPMDQLDDEEGLPEKLVIKNQQFHKEREQPPRFAQPGSFEYEYAMRWKALIEMEKQQQDQVDRNIKEAREKLEMEMEAARHEHQVMLMRQDLMRRQEELRRMEELHNQEVQKRKQLELRQEEERRRREEEMRRQQEEMMRRQQEGFKGTFPDAREQEIRMGQMAMGGAMGINNRGAMPPAPVPPGTPAPPGPATMMPDGTLGLTPPTTERFGQAATMEGIGAIGGTPPAFNRPAPGAEFAPNKRRRY
notes: NonO cDNA expressed from a transfected plasmid; Its NonO fragments end at residue 473; The tag is therefore unknown; also called NonO OE; full-length NonO; source: BJ human diploid fibroblasts, stably transfected, nuclear or cytoplasmic extract
On to B2, for which the “stoichiometry N” value in data set [2] is 2.

In general, stoichiometry N refers to a count of units in the complex or per binding partner.
